Where “and” joins values, the source holds several entries; their conditions need not be identical. Equal entries are not always repeated.
Columns and labels:
[1] = target: T1, CD20 (on B cells) (human, UniProt P11836); assay: flow cytometry on PBMC of healthy donors, B cell gate (CD3-CD19+), % of binding, mean of two donors
T1 construct: native on the surface of B cells (CD3-CD19+) in PBMC of healthy donors; the sheet names the cell type only
T1 sequence (single chain, looked up): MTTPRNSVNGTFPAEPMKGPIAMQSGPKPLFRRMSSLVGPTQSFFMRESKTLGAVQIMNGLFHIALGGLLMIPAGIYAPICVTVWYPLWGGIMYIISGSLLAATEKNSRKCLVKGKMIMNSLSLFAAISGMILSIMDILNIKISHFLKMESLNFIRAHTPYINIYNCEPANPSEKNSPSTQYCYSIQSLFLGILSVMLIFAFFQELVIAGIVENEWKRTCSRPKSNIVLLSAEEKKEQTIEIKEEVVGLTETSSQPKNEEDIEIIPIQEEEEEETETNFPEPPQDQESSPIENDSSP

[2] = target: T2, human CCR8 (human, UniProt P51685 1-355); assay: cell-based or functional assay
[3] = target: T2, human CCR8; assay: flow cytometry, HUT78 cells (endogenous CCR8)
[4] = target: T2, human CCR8; assay: cell-based or functional assay; remark: listed apart in the source
[5] = target: T2, human CCR8; assay: cell-based or functional assay; remark: listed apart in the source
[6] = target: T2, human CCR8; assay: cell-based or functional assay; remark: listed apart in the source
[7] = target: T3, hCCR8 SNAP-tag (human, UniProt P51685 1-355, SNAP-tag labelled with Lumi4-Terbium); assay: HTRF Tag-lite, inhibition of hCCL1-AF647 binding to SNAP-tag hCCR8 on HEK-293
T3 construct: also called human CCR8 engineered with a SNAP-tag at the N-terminus; not shown: SNAP-tag at the N-terminus
Description: The inhibition of CCL1 binding to hCCR8 was evaluated with the Tag-Lite® technology from Cisbio (Revvity). Human CCR8 is engineered with a SNAP-tag at the N-terminus of the GPCR. hCCR8 SNAP-tag is transiently transfected on HEK-293 cell line using FuGene® (Promega, Madison, WI, USA). 48 hours after transfection, cells are labeled with the substrate Lumi4-Terbium® (Cisbio, Codolet, France) which covalently reacts with the SNAP-tag, for 1 h at 37° C. […] The Kd is previously obtained in a saturation binding assay on the same cells. […] The plate is next incubated at 21° C. for 2 h. Detection of HTRF signal is performed on the multiplate reader EnVision (PerkinElmer, Waltham, MA, USA). The HTRF (665/620) ratio is calculated by EnVision software, the data exported are considered as the total binding. The specific binding is calculated then by subtracting the non-specific signal from the total binding. The Ki and IC₅₀are calculated using the “One site—Fit Ki” and “One site—FitlogIC50” from GraphPad Prism 9 (Graphpad Software, San Diego, CA, USA), respectively.

[8] = target: T2, human CCR8; assay: cell-based or functional assay; remark: listed apart in the source
[9] = target: pm2, modified CCR8 related peptide (human, sulfated tyrosine at Y16); assay: ELISA on coated CCR8 peptide (500 ng/mL), OD [cont.]
pm2, modified CCR8 related peptide (human, sulfated tyrosine at Y16), sequence (peptide, as listed by the source): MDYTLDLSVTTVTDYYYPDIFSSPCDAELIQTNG
Outline: (§1)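 Anti-CCR8 mAbs tested at 1 μg/mL and then diluted 1/10 on CCR8-related peptides coated at 500 ng/mL in carbonate/bicarbonate buffer, 90 min at room temperature. Bound antibody developed with TMB for 15 min; optical density read as mAb reactivity.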

[10] = target: pm8, modified CCR8 related peptide (human, sulfated tyrosines at Y15, Y16 and Y17); assay: as above
pm8, modified CCR8 related peptide (human, sulfated tyrosines at Y15, Y16 and Y17), sequence (peptide, as listed by the source): as above
Outline: as §1

[11] = target: pm1, modified CCR8 related peptide (human, sulfated tyrosine at Y15); assay: as above
pm1, modified CCR8 related peptide (human, sulfated tyrosine at Y15), sequence (peptide, as listed by the source): as above
Outline: as §1

[12] = target: T4, pwt1, unmodified CCR8 related peptide (human, none (non-sulfated Y15, Y16, Y17)); assay: as above
T4 construct: First 34 amino acids of human CCR8, synthetic; also called unmodified peptide
T4 sequence (peptide, as listed by the source): as above
Outline: as §1

[13] = target: pm6, modified CCR8 related peptide (human, sulfated tyrosines at Y16 and Y17); assay: as above
pm6, modified CCR8 related peptide (human, sulfated tyrosines at Y16 and Y17), sequence (peptide, as listed by the source): as above
Outline: as §1

[14] = target: pm3, modified CCR8 related peptide (human, sulfated tyrosine at Y17); assay: as above
pm3, modified CCR8 related peptide (human, sulfated tyrosine at Y17), sequence (peptide, as listed by the source): as above
Outline: as §1

[15] = target: pm4, modified CCR8 related peptide (human, sulfated tyrosines at Y15 and Y16); assay: as above
pm4, modified CCR8 related peptide (human, sulfated tyrosines at Y15 and Y16), sequence (peptide, as listed by the source): as above
Outline: as §1

[16] = target: pm5, modified CCR8 related peptide (human, sulfated tyrosines at Y15 and Y17); assay: as above
pm5, modified CCR8 related peptide (human, sulfated tyrosines at Y15 and Y17), sequence (peptide, as listed by the source): as above
Outline: as §1

B1: Rituximab (antibody, V domains shown)
VH: QVQLQQPGAELVKPGASVKMSCKASGYTFTSYNMHWVKQTPGRGLEWIGAIYPGNGDTSYNQKFKGKATLTADKSSSTAYMQLSSLTSEDSAVYYCARSTYYGGDWYFNVWGAGTTVTVSA
VL: QIVLSQSPAILSASPGEKVTMTCRASSSVSYIHWFQQKPGSSPKPWIYATSNLASGVPVRFSGSGSGTSYSLTISRVEAEDAATYYCQQWTSNPPTFGGGTKLEIK
**Q.** With B1 as the binder, how does the “EC50 (read off the curve)” value [1] read?
**A.** ~0.1 µg/mL

B2: humanized anti-CCR8 mAb 2-13 (antibody, human IgG1, kappa)
heavy: not shown
light: DIVMTQAAPSLSVTPGESASISCTSSKSLLHSNGNTYLYWFLQKPGQSPQLLIYRMSNLASGVPDRFSGSGSGTAFTLKISRVEAEDVGVYYCMQHREYPFTFGSGTKLEIKRTVAAPSVFIFPPSDEQLKSGTASVVCLLNNFYPREAKVQWKVDNALQSGNSQESVTEQDSKDSTYSLSSTLTLSKADYEKHKVYACEVTHQGLSSPVTKSFNRGEC
notes: Humanized, human IgG1 allotype G1m17 Fc with the terminal lysine deleted and the SDIE mutations
**Q.** What does the source list for B2?
**A.** IC50, CCL1 induced hCCR8 Gi2 signaling (BRET) at pH 6.5 [2]: 0.025 µg/ml and 0.165 nM; IC50, CCL1 induced hCCR8 Gi2 signaling (BRET) at pH 7.4 [2]: 0.035 µg/ml and 0.232 nM; % of labelled cells [3]: 32%; IC50, CCL1 induced hCCR8 Gi2 signaling (BRET, HEK-293) [4]: 0.035 µg/mL and 0.232 nM; ADCC EC50, HUT78 targets, NK cells Donor 1 [5]: 6.43 pM; ADCC EC50, HUT78 targets, NK cells Donor 2 [5]: 2.16 pM; ADCP % Max of phagocytosis, HUT78 targets, monocyte-derived macrophages Donor 9 [6]: 9.65%; IC50 [7]: 0.09 µg/mL and 0.6 nM; Ki [7]: 0.05 µg/mL and 0.3 nM; hCCL1 (100 nM) residual response in %, Protocol #2, mAb 0.08 µg/mL ([…] nM) [8]: 74%; hCCL1 (100 nM) residual response in %, Protocol #2, mAb 0.4 µg/mL (2.67 nM) [8]: 54%; hCCL1 (100 nM) residual response in %, Protocol #2, mAb 10 µg/mL (66.7 nM) [8]: 40%; hCCL1 (100 nM) residual response in %, Protocol #3, mAb 0.05 µg/mL (0.33 nM) [8]: 89%; hCCL1 (100 nM) residual response in %, Protocol #3, mAb 0.5 µg/mL (3.33 nM) [8]: 63%; hCCL1 (100 nM) residual response in %, Protocol #3, mAb 5 µg/mL (33.3 nM) [8]: 51%; binding result [9]: binds; binding result [10]: binds; binding result [11]: binds; binding result [12]: binds; binding result [13]: binds; binding result [14]: binds; binding result [15]: binds; binding result [16]: binds

Reference: patent publication US20260167731A1 (DOMAIN THERAPEUTICS, published 2026)
